{"source": "patent US7494767B2", "about": "“Assay for TSG101 as inhibitors of HIV production” (priority 2001, dated 2009)", "key": {"[1]": {"biological_target": "T1, Tsg101 capture by Pr55^Gag (Homo sapiens, UniProt Q99816)", "T1 construct": "anneals at the position corresponding to amino acid 10 in the protein, and 3′ primer no; 30, which anneals to the C-terminus; made in house; host or cells: Tsg101: rabbit reticulocyte lysate (TNT T7 system); Pr55Gag: E. coli BL21-DE3", "T1 sequence (Q99816 11-390)": "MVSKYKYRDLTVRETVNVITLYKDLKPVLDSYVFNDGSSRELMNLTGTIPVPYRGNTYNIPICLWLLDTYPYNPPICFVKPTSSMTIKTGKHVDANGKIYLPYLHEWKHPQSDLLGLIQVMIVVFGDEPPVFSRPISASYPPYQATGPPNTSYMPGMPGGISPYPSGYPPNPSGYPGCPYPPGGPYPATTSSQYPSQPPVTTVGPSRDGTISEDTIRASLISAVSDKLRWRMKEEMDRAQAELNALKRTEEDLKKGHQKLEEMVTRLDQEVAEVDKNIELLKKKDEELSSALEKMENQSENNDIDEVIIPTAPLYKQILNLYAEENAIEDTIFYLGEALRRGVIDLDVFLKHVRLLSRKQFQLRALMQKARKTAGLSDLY", "experiment": "Immune capture competition assay: Tsg101 capture by Pr55^Gag on antibody-coated Protein A beads", "type": "binding, mouse or human", "details": "5-fold molar excess of peptide", "method": "Protein detection. Proteins were separated by electrophoresis through a 12.5% SDS polyacrylamide gel. For detection of radiolabeled Tsg101 after electrophoresis, gels were fixed, incubated for 30 min in EN^3HANCE (DuPont NEN) autoradiography enhancer for gel fluorography and dried. Radioactive bands were visualized using imaging film (BioMax, Kodak). Gels with non-radioactive samples were transferred to nitrocellulose and analyzed by Western blotting. The following antibodies, as specified in the text, were used: anti-capsid (CA)1 and -CA2 (rabbit polyclonal antibodies raised against native and denatured forms of the CA protein, respectively; Ebbets-Reed, D., 1996, in Molecular Microbiology, State University of New York at Stony Brook, Stony Brook, N.Y., pp. 209; Ehrlich, L. S., Agresta, B. E. & Carter, C. A., 1992, J. Virol. 66,4874-4883); anti-CA3 (mouse monoclonal antibody, NEN-DuPont); anti-p6 (rabbit polyclonal against the C-terminal 16 amino acids, S. Campbell, NCI-FCRDC); anti-nucleocapsid (NC, goat polyclonal, A. Rein, NCI-FCRDC); anti-T7 (Novagen); anti-Tsg1011 (monoclonal, Santa Cruz); antiTsg1012 (rabbit polyclonal, obtained from S. Cohen, Stanford U.). […]\nTsg101 binds to Pr55^Gag in vitro. […] The protein was detected consistently as a doublet, perhaps due to internal initiation at Met10. The protein was also sometimes detected as a doublet in cytoplasmic extracts. […]"}, "HIV-1 particles": {"tested_on": "HIV-1 particles", "experiment": "Release of HIV-1 virus-like particles from transfected COS-1 cells (Western blot of particles, anti-CA)", "type": "cell-based", "details": "5 μM pa in the absence of pIND-h-Tsg101-FLAG"}}}
{"compound": "LIAPP", "values": [{"measurement": "reduction in Tsg101 capture by Pr55^Gag", "setting": "[1]", "value": "no change was detected"}]}
{"compound": "CC(C)CC[C@@H](O)[C@](C)(O)[C@H]1CC[C@@]2(O)C3=CC(=O)[C@@H]4C[C@@H](O)[C@@H](O)C[C@]4(C)[C@H]3CC[C@]12C", "note": "[pa, reference compound]", "values": [{"measurement": "inhibitory effect on virus release", "setting": "HIV-1 particles", "value": "no inhibitory effect"}]}
